# Test results published in article doi:10.1101/2023.08.25.554718.
# Assays:
# Experiment in all cases: EMSA
# Settings in all cases: EMSA: 20 mM HEPES pH 7.3, 150 mM NaCl, 0.5 mM TCEP, 30 min room temperature, 0.5 uM nucleosome or DNA, FRET: 20 mM HEPES pH 7.1, 100 mM NaCl
# MBP-DBD C/EBPalpha = MBP-DBD C/EBPalpha (UniProt P53566)
# [1] = biological target: PU.1 ETS Q218H Q218H (mouse) (UniProt P17433)
# [2] = biological target: PU.1 ETS (ETSPU.1) (mouse) (UniProt P17433)
# MBP-DBD C/EBPalpha, sequence (P53566 214-359): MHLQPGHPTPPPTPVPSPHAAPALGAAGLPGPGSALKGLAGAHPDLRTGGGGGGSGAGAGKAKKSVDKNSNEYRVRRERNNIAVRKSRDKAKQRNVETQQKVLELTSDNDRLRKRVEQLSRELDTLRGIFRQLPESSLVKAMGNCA
Sequence,Kd (MBP-DBD C/EBPalpha) [µM],binding signal (fold reduction in affinity vs WT) [1],fold reduction in binding affinity (fold reduction in affinity vs WT H2A) [2]
TAGGTGCAGGGCCTCTCGGCTGCTGATCTTCAGCAACTTGCTGAGAGTTGCAGCATTGCTGAGTCTTAGCAATGGATACTTCCCGATTCCCCTCACAAAAATAGGTCAGTCTGTCTGGCTAGTTCTGTACTTGCAGACACAGGGCATGTGGGGTTCCTATTT (double strand) [Cmut CX3CR1 nucleosome],2.4,–,–
TAGGTGCAGGGCCTCTCGGCTGCTGATCTTCAGCTGGTTGCTGAGAGTTGCAGCATTGCTGAGTCTTAGCAATGGATACTTCCCGATTCCCCTCACAAAAATAGGTCAGTCTGTCTGGCTAGTTCTGTACTTGCAGACACAGGGCATGTGGGGTTCCTATTT (double strand) [162 bp CX3CR1 nucleosome],1.7,2,–
"TAGGTGCAGGGCCTCTCGGCTGCTGATCTTCAGCTGGTTGCTGAGAGTTGCAGCATTGCTGAGTCTTAGCAATGGATACTTCCCGATTCCCCTCACAAAAATAGGTCAGTCTGTCTGGCTAGTTCTGTACTTGCAGACACAGGGCATGTGGGGTTCCTATTT (double strand) [162 bp CX3CR1 nucleosome, 3A H2A (K75A;K76A;T77A)]",–,–,3
